Measurements taken from the supplement of paper PMC9170038.

System: MS2 coat protein
Assay: apparent KD of MS2 coat protein; designed switch direction (-1 OFF switch, 1 ON switch): -1; higher = weaker reporter binding
Summary of the method: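 RNA switches sharing common flanks were transcribed by stalled E. coli RNA polymerase on Illumina chips. A doubling series of SNAP-549-labelled MS2 coat protein, from 0.7 or 1.5 nM to 3 µM, was applied in Tris-HCl pH 7.5 buffer with KCl, MgCl2, BSA, DTT, tRNA and Tween-20. Each step lasted 0.8–1.5 h at the bottom of the series and 10–20 min at the top. Normalised cluster fluorescence was curve-fitted, giving apparent KD as the per-design median over clusters.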

[1] = Eterna round: R95, input ligand: microRNA oligo, concentration not stated
[2] = Eterna round: R95, input ligand: FMN 200 uM
[3] = Eterna round: R95, input ligand: none
[4] = input ligand: microRNA oligo, concentration not stated

Sequence | apparent KD of MS2 coat protein (input ligand: FMN 200 uM) [nM] | apparent KD of MS2 coat protein (input ligand: none) [nM] | apparent KD of MS2 coat protein [1] [nM] | apparent KD of MS2 coat protein [2] [nM] | apparent KD of MS2 coat protein [3] [nM] | apparent KD of MS2 coat protein [4] [nM]
GGACAUAAAGUCAGGAUAUUAAUGCGAACAAGCGAUGAGAAGGGACAUGAGGAUCACCCAUGUGAUUCUCAUCA [Edvebe] (Eterna round: R97, puzzle: Brourd's mod of Exclusion 4) | 17.6 | 16.5 |  |  |  | 
AUCAUGUAAGGAUAUCUGACAUGUGACGAAAGUCACUGUUCAGAGAAGGUACAUGAGGAUCACCCAUGUAGAAC [Ex4-3: 43] (puzzle: Exclusion 4) |  |  | 62.8 |  |  | 
UCAUGUAUGUAGGAUAUCGAUGUCCUCGGACAUCGAGAAGGACGUACAUGAGGAUCACCCAUGUAACUUGCAUG [Exclusion 6 - B - 11:c] (puzzle: Exclusion 6) |  |  | 14 | 23 | 23.4 | 
AAAAGAACAGGAUAUUCGGGAAAUAACAUGAGGAUCACCCAUGUUAACGCGGGUGAGAACGAAGAAGGGUUCUAAA [Atusceon] (puzzle: Exclusion 5) |  |  | 96.4 | 114 | 93.1 | 
AAUCCACAUGAGGAUCACCCAUGUGAGGAUAUGAUACUAUGUACUUCGGUACAUAGUAUCAGAAGGCAUAUGAA [Ex1-3: 49] (puzzle: Exclusion 1) |  |  | 26.9 |  |  | 
ACAAGCUUUUUGUUCGUCUUAUAAUAUUAAAUAAAGAUAACAUGAGGAUCACCCAUGUAACAAAGACGGACUCAUGU [Sesor Array 17 - Jieux - Sensor v3, turn-off variant 2] (puzzle: Sensor v3, turn-off variant 2) |  |  | 200 | 16.2 | 13.8 | 
AACAAAAGCGUAGGAUAUGACUGGGCUCAUGCCUAACAUAACUACAAACAUGAGGAUCACCCAUGUCAGAAGGACGAAUAAAAU [Isesbequti] (Eterna round: R96, puzzle: Exclusion NG 2) | 87.1 | 72 |  |  |  | 57.5
AAAUCGGUGGAGGAUAUUGUACAGGAAACGGUGCGAGAAGGUUACACAUGAGGAUCACCCAUGUUAAAUAGCGA [EX6 #56] (Eterna round: R97, puzzle: Exclusion 6) | 25.2 | 22.1 |  |  |  | 
GGUUGGCGAGGAUAUACAUGAGGAUCACCCAUGUGAGAGAAAGAAGUGAGGAAGAAUAGUAGAAGGCGCUGACG [salish99_ex3_r3_056] (puzzle: Exclusion 3) |  |  | 56.1 | 746 | 69.1 | 
GGCGUGUAUUAGGAUAUUGGAGGGAGGGAGGGCUAAGAAGGAGUAACAUGAGGAUCACCCAUGUAGAGGAAGGG [RHig 2] (Eterna round: R97, puzzle: Exclusion 6) | 63.1 | 95.3 |  |  |  | 
AGCUGUGGCCGAGGAUAUCACAUGAGGAUCACCCAUGUACAUGAUUAGGCCUGGUAACAGGCUCAUGAGAAGGCGGUCUCAGCA [Eli eng2 - 013] (Eterna round: R96, puzzle: Exclusion NG 2) | 16.1 | 22.4 |  |  |  | 16.4
CUGCUCCGUGUAGGAUAUGCGCGCAACCAACGCGCAGAAGGACAUGAGGAUCACCCAUGUAUGUUAUUAUCACGUGAAGCGCAA [Design 31] (Eterna round: R96, puzzle: Exclusion NG 1) | 16 | 13.2 |  |  |  | 12.3
CGGGCAGCAGGAUAUACAUAGGUCAACAGAAAUGAGUAUUGACAUGAGGAUCACCCAUGUAGAAGGGCUGUACC [Eternabot (L2) Solution 96] (Eterna round: R97, puzzle: Exclusion 2) | 412 | 391 |  |  |  | 
UUAACGUGGGCGUCCCACAGCAAGCUUUUUGCUCGUUUAACAUGAGGAUCACCCAUGUCGCUGCGGGAUCCCUAUGA [Abeisat] (puzzle: Sensor v3, turn-off variant 2) |  |  | 13.1 | 13.5 | 11.6 | 
CAUGGUUAACGAUUAUUCAACAUGAGGAUCACCCAUGUCUCUUUUUCUUUUUGCUCGUCUUAUCCUCCUUUGUUCAC [JR_STOV1_v2_Sub0102] (Eterna round: R97, puzzle: Sensor, turn-off variant 1) | 379 | 412 |  |  |  | 
GGAACGCGAGGAUAUACAUAGCCGGAAACGGCAAUAGCCUCACAUGAGGAUCACCCAUGUAGAAGGCGCGGAGA [AK-MS2ROC-r4-exclusion2-24] (Eterna round: R97, puzzle: Exclusion 2) | 119 | 17.2 |  |  |  | 
UUAAAUCAUGUAGGAUAUGCGUGGCGAAGCUAUGCAGAAGGACAUGAGGAUCACCCAUGUUCUGCGGUCUGCGUACAGAUCGCA [JL ENG1 1.05] (Eterna round: R96, puzzle: Exclusion NG 1) | 502 | 42.7 |  |  |  | 29.1

Sequence | apparent KD of MS2 coat protein (input ligand: FMN 200 uM) [nM] | apparent KD of MS2 coat protein (input ligand: none) [nM] | apparent KD of MS2 coat protein [1] [nM] | apparent KD of MS2 coat protein [2] [nM] | apparent KD of MS2 coat protein [3] [nM] | apparent KD of MS2 coat protein [4] [nM]
AGAGUGUGAGGAUAUACAUGAGGAUCACCCAUGUAAUAACAGGUUACGGGCGGCACCAGUAGAAGGCACUUGUC [Eternabot (L2) Solution 22] (Eterna round: R97, puzzle: Exclusion 3) | 42 | 28.2 |  |  |  | 
AGAAAACGAGGAUAUACGUGCAUAUUCUCGCCCAAUGGGCAACAUGAGGAUCACCCAUGUAGAAGGCGUAAAGA [Dienoror] (puzzle: Exclusion 2) |  |  | 34.6 |  |  | 
AUGGGUCCUCACGGAGCUACAUGAGGAUCACCCAUGUGUAUUGAGGAUAUCCACUGCCGAGGGCUGGAGAAGGCAGUGUACUGU [Ex NG3 #92] (Eterna round: R96, puzzle: Exclusion NG 3) | 124 | 108 |  |  |  | 89.3
GGAUCGAAUGUGAGGAUAUACCACUGGAUACAGUGGUAGAAGGCACAUGAGGAUCACCCAUGUCUCUACGAUCC [Fiskers BMX 4 - 43] (puzzle: Brourd's mod of Exclusion 4) |  |  | 21 |  |  | 
UAUAAUUUUUUUUUUUUACAAGCUUUUUGCUCGUCUUAUACAUGAGGAUCACCCAUGUGGGUGAAAGAUAGAUUGUC [JMF's solution 2] (puzzle: Sensor v3, turn-off variant 2) |  |  | 15.5 | 37.7 | 41.2 | 
GUAAAACAUGUAGGAUAUGCGUGGCGAAGCUAUGCAGAAGGACAUGAGGAUCACCCAUGUUAAAGCGUCUGCGUACAGAUGCAA [Mat - Exclusion NG 1 - Mod of JL - D94] (Eterna round: R96, puzzle: Exclusion NG 1) | 279 | 29.2 |  |  |  | 19.8
GCAGGUCGAGGAUAUACAUGAGGAUCACCCAUGUGGUCACGUGACGAUAGUCACGAAUGUAGAAGGUGACCUGC [E3/3-B2] (Eterna round: R97, puzzle: Exclusion 3) | 3.13 | 207 |  |  |  | 
UUACGGAUAGAGGAUAUAUUAAGGAAGGUUUCGAUAGAAGGCUAGACAUGAGGAUCACCCAUGUAUAUUGGGAU [JR_Ex6_Sub073] (Eterna round: R97, puzzle: Exclusion 6) | 164 | 97.9 |  |  |  | 
CGCCUACAUGAGGAUCACCCAUGUGAGGAUAUCCUGCGAGGAUCAAAAGAUCCUCGUGGGAGAAGGCGCUUGGA [Omei Ex1 B7] (Eterna round: R97, puzzle: Exclusion 1) | 18.7 | 19.4 |  |  |  | 
AGUAAGCUAGGAUAUGCUUUGGGAAAGCCUUCCUUCGAUAAACUUGAGGAUCACCCAAGUAGAAGGAGCUAAAU [jl-ex2.4.48 ViennaUCT mod] (Eterna round: R97, puzzle: Exclusion 2) | 16.7 | 16 |  |  |  | 
UGCAGACGAGGAUAUAAAUUUGAUAACAUGAGGAUCACCCAUGUGAUCGAUAGAUCAAAUUUAGAAGGCGUCUGCA [E5/7-A2] (Eterna round: R97, puzzle: Exclusion 5) | 369 | 717 |  |  |  | 
CCGGAAGUAGAGGAUAUCGUAUCGGAUACGAUACGAGAAGGCUAUACAUGAGGAUCACCCAUGUGUCCUACCGG [Fiskers Ex 6 - 5] (puzzle: Exclusion 6) |  |  | 21.4 |  |  | 
AUAACAAGCUUUUUUUUCGUAGUACAUGACGCUCGAGUCACAUGAGGAUCACCCAUGUCUUCCUGUUUGAUUGUUGA [JR_SV3TOV2_Sub058] (puzzle: Sensor v3, turn-off variant 2) |  |  | 54.7 | 45.8 | 54.6 | 
ACAAGCUUUUGCUCGUCUUACAUGAGGAUCACCCAUGUCGGGUGCUUGCUUACGUCCAGCAUCUGGACCGUAGCAGU [-24.6, -43.1 kcal, 19% A] (Eterna round: R97, puzzle: Sensor, turn-off variant 1) | 142 | 165 |  |  |  | 
AUAAUGUGAGGAUAUCAGUAGUAUUGCCUCGGCAAUACUACUGAGAAGGCACAUGAGGAUCACCCAUGUGAUCA [E4/2-B2] (Eterna round: R97, puzzle: Exclusion 4) | 29.3 | 772 |  |  |  | 
AAACCGGGCGCACCUCAGUCACAUGAGGAUCACCCAUGUUCUGAGGAUAUGCAUCCAAACGGAACGCAGAAGGCGGAACGUAAC [Bibidianer] (Eterna round: R96, puzzle: Exclusion NG 3) | 10.5 | 13 |  |  |  | 8.52
GGAAGAAAGCGAGGAUAUCGAUAAGAAGAAGAAGAUAAGGUGACAUGAGGAUCACCCAUGUAAUACGAGAAGGCGCGACCUGCG [i'd better go back to my homework] (Eterna round: R96, puzzle: Exclusion NG 2) | 215 | 197 |  |  |  | 147
